Measurements published in publication PMC7857584.

How the values were obtained:
MLA10-cLUC (barley) = MLA10-cLUC (barley) (UniProt Q6WWJ4)

In the case of AVRA10-nLUC (natural protein), the reduction of relative LUC activity (proxy for cell death) in barley protoplasts co-expressing AVRa10 and Mla22Lrr10, against the empty vector (% reduction of relative LUC activity) (MLA22LRR10-cLUC (barley)) is reported as 40 and the LUC activity (proxy for cell viability) in barley protoplasts co-expressing Mla10 and AVRa10, against Mla10 with AVRa22 (% lower LUC activity) (MLA10-cLUC (barley)) is reported as 50.
